Laboratory results: the supplement of paper PMC11246515
± gives the standard deviation of the averaged measurements.

Assay: total protein half-life in vivo (active degradation + dilution); higher = more stable protein
[1] = E. coli NCM3722 delta-clpP delta-lon delta-hslV, growth: N-lim chemostat, doubling time 6 h
[2] = wild type E. coli NCM3722, growth: C-lim chemostat, doubling time 3 h
[3] = wild type E. coli NCM3722, growth: C-lim chemostat, doubling time 6 h
[4] = wild type E. coli NCM3722, growth: C-lim chemostat, doubling time 12 h
[5] = E. coli NCM3722 delta-clpP, growth: N-lim chemostat, doubling time 6 h
[6] = E. coli NCM3722 delta-hslV, growth: N-lim chemostat, doubling time 6 h
[7] = E. coli NCM3722 delta-lon, growth: N-lim chemostat, doubling time 6 h
[8] = E. coli NCM3722 delta-smpB, growth: N-lim chemostat, doubling time 6 h
[9] = wild type E. coli NCM3722, growth: N-lim chemostat, doubling time 6 h
[10] = wild type E. coli NCM3722, growth: N-lim chemostat, doubling time 12 h
[11] = wild type E. coli NCM3722, growth: P-lim chemostat, doubling time 6 h
[12] = wild type E. coli NCM3722, growth: P-lim chemostat, doubling time 12 h

Sequence of P0AFC7 (chain, as listed by the source): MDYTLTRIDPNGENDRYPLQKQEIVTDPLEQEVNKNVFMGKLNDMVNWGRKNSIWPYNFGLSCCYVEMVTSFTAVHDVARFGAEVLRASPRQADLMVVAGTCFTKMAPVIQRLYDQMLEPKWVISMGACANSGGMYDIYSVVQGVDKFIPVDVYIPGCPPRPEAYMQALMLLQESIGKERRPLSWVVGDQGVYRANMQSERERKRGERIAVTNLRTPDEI

Substance | total protein half-life in vivo [1] | total protein half-life in vivo [2] | total protein half-life in vivo [3] | total protein half-life in vivo [4] | total protein half-life in vivo [5] | total protein half-life in vivo [6] | total protein half-life in vivo [7] | total protein half-life in vivo [8] | total protein half-life in vivo [9] | total protein half-life in vivo [10] | total protein half-life in vivo [11] | total protein half-life in vivo [12]
MSIAVTTTDPTNTGVSTTSSSSLTGSNAADLQSSFLTLLVAQLKNQDPTNPMENNELTSQLAQISTVSGIEKLNTTLGSISGQIDNSQSLQASNLIGHGVMIPGTTVLAGTGSEEGAVTTTTPFGVELQQAADKVTATITDKNGAVVRTIDIGELTAGVHSFTWDGTLTDGSTAPNGSYNVAISASNGGTQLVAQPLQFALVQGVIRGNSGNTLDLGTYGTTTLDEVRQII | 3.99 ± 0.28 h | 0.36 ± 0.076 h | 1.65 h | 0.363 h |  |  |  |  |  |  |  | 
MINSPRVCIQVQSVYIEAQSSPDNERYVFAYTVTIRNLGRAPVQLLGRYWLITNGNGRETEVQGEGVVGVQPLIAPGEEYQYTSGAIIETPLGTMQGHYEMIDENGVPFSIDIPVFRLAVPTLIH | 6.35 ± 0.25 h | 1.4 ± 0.14 h | 2.43 h | 3.11 ± 0.32 h | 1.66 ± 0.39 h | 0.615 h | 1.4 h | 1.24 ± 0.41 h | 1.65 h | 1.98 h | 2.29 ± 0.19 h | 4.37 ± 0.13 h
MTKMSRYALITALAMFLAGCVGQREPAPVEEVKPAPEQPAEPQQPVPTVPSVPTIPQQPGPIEHEDQTAPPAPHIRHYDWNGAMQPMVSKMLGADGVTAGSVLLVDSVNNRTNGSLNAAEATETLRNALANNGKFTLVSAQQLSMAKQQLGLSPQDSLGTRSKAIGIARNVGAHYVLYSSASGNVNAPTLQMQLMLVQTGEIIWSGKGAVSQQ [P0AB38] | 5.22 ± 0.26 h | 3.38 ± 0.095 h | 6.19 ± 0.46 h | 10.9 ± 0.91 h | 5.7 ± 0.39 h | 6.59 ± 0.23 h | 6.43 ± 0.46 h | 6.495 ± 0.062 h | 6.102 ± 0.019 h | 12.3 ± 0.41 h | 5.94 ± 0.24 h | 11.7 ± 1.2 h
MRNFDLSPLYRSAIGFDRLFNHLENNQSQSNGGYPPYNVELVDENHYRIAIAVAGFAESELEITAQDNLLVVKGAHADEQKERTYLYQGIAERNFERKFQLAENIHVRGANLVNGLLYIDLERVIPEAKKPRRIEIN [P0C054] |  | 1.2 ± 0.21 h | 1.83 ± 0.025 h | 1.87 ± 0.3 h | 3.11 ± 0.15 h | 1.47 ± 0.1 h | 2.83 ± 0.24 h | 1.35 ± 0.082 h | 1.65 ± 0.42 h | 2.7 ± 0.45 h | 1.58 ± 0.077 h | 3.08 ± 0.14 h
MAIEQTAITRATFDEVILPIYAPAEFIPVKGQGSRIWDQQGKEYVDFAGGIAVTALGHCHPALVNALKTQGETLWHISNVFTNEPALRLGRKLIEATFAERVVFMNSGTEANETAFKLARHYACVRHSPFKTKIIAFHNAFHGRSLFTVSVGGQPKYSDGFGPKPADIIHVPFNDLHAVKAVMDDHTCAVVVEPIQGEGGVTAATPEFLQGLRELCDQHQALLVFDEVQCGMGRTGDLFAYMHYGVTPDILTSAKALGGGFPISAMLTTAEIASAFHPGSHGSTYGGNPLACAVAGAAFDIINTPEVLEGIQAKRQRFVDHLQKIDQQYDVFSDIRGMGLLIGAELKPQYKGRARDFLYAGAEAGVMVLNAGPDVMRFAPSLVVEDADIDEGMQRFAHAVAKVVGA | 5.24 ± 0.26 h | 3.53 ± 0.35 h | 6.1 ± 0.17 h | 9.18 ± 0.29 h | 4.41 ± 0.43 h | 4.47 ± 0.0086 h | 4.76 ± 0.3 h | 4.4 ± 0.099 h | 4.42 ± 0.3 h | 7.08 ± 0.24 h | 5.71 ± 0.09 h | 11.36 ± 0.11 h
MSTPDFSTAENNQELANEVSCLKAMLTLMLQAMGQADAGRVMLKMEKQLALIEDETQAAVFSKTVKQIKQAYRQ [P0AD07] |  |  |  |  |  |  |  |  |  |  |  | 7.56 ± 2.9 h
P0AFC7 | 6.19 ± 0.65 h | 2.92 ± 0.093 h | 5.98 ± 0.26 h | 11.2 ± 1.5 h | 5.993 ± 0.019 h | 6.34 ± 0.17 h | 5.81 ± 1.1 h | 5.87 ± 0.17 h | 6.54 ± 0.77 h | 12.5 ± 0.86 h | 5.59 ± 0.15 h | 12.5 ± 0.61 h
MNGELIWVLSLLAVAIVLFATGRVRMDAVALFVIVAFALSGTLTVPEVFSGFSDPNVVLIAALFIIGDGLVRTGVATVMGTWLVKVAGNSEIKMLVLLMLTVAGLGAFMSSTGVVAIFIPVVLSVAMRMQTSPSRLMMPLSFAGLISGMMTLVATPPNLVVNSELLREGYHGFSFFSVTPIGLVVLVLGILYMLVMRFMLKGDTQTPQREGWTRRTFRDLIREYRLTGRARRLAIRPGSPMIGQRLDDLKLRERYGANVIGVERWRRFRRVIVNVNGVSEFRARDVLLIDMSAADVDLRQFCSEQLLEPMVLRGEYFSDQALDVGMAEISLIPESELIGKSVREIGFRTRYGLNVVGLKRNGVALEGSLADEPLLLGDIILVVGNWKLIGMLAKQGRDFVALNLPEEVSEASPAHSQAPHAIFCLVLMVALMLTDEIPNPVAAIIACLLMGKFRCIDAESAYKSIHWPSIILIVGMMPFAVALQKTGGVALAVKGLMDIGGGYGPHMMLGCLFVLSAVIGLFISNTATAVLMAPIALAAAKTMGVSPYPFAMVVAMAASAAFMTPVSSPVNTLVLGPGNYSFSDFVKLGVPFTIIVMAVCVVMIPMLFPF [P0AFU2] |  | > 4 h | 5.46 h |  |  | 6.68 ± 0.32 h | 6.39 ± 0.64 h | 6.29 ± 0.45 h | 5.65 ± 1.7 h | 12.4 ± 3.2 h | > 8 h | 12.8 ± 1.7 h
